The source of these data is paper PMC8885668, “A high-performance electrochemical aptasensor based on graphene-decorated rhodium nanoparticles to detect HER2-ECD oncomarker in liquid biopsy”.

The target of this series is HER2-ECD (recombinant human HER2/ErbB2/CD340) (human, UniProt P04626 23-652). Description: electrochemical aptasensor (DPV); Rh-NPs/rGONs graphite electrode; linear 10-500 ng/mL; LOD 0.665 ng/mL (0.667 in abstract), not a Kd; DPV in 0.1 M PBS pH 7.4, 5.0 mM K4[Fe(CN)6]/K3[Fe(CN)6] (1:1), 0.1 M KCl; 50 nM aptamer immobilized; 40 min protein incubation; BSA-blocked; binding temperature not stated. To be noted: protein: commercial; predicted double stem-loop; text also claims G-quadruplex.

B1: anti-HER2 aptamer (ssDNA)
DNA: GGGCCGTCGAACACGAGCATGGTGCGTGGACCTAGGATGACCTGAGTACTGTCC
modifications: 5' NH2-(CH2)6, amide-coupled to MPA on electrode
For B1, the binding result is “binds”.
